Source: patent publication US20260274921A1
pEC50: −log10 of the molar value.

What was measured:
[1] = target: His-tagged CD47 extracellular domain (ECD) protein (Abclonal, CAT #RP01306) (human) (UniProt Q08722); assay: ELISA; pH 6.0; conditions: Fc fusion
[2] = target: His-tagged CD47 extracellular domain (ECD) protein (Abclonal, CAT #RP01306) (human) (UniProt Q08722); assay: ELISA; pH 7.2; conditions: Fc fusion

His-tagged CD47 extracellular domain (ECD) protein (Abclonal, CAT #RP01306) (human), sequence (Q08722 19-139): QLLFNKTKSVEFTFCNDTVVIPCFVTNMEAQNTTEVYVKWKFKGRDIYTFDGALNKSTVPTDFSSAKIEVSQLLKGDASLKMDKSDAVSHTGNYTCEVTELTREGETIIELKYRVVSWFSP

Substance | pEC50 [1] | pEC50 [2]
SIN-304, SIRPαV2 K68H IgV-IgG1 Fc | 9.11 | –
SIN-301, SIRPαV2 K53H IgV-IgG1 Fc | 8.87 | –
SIN-302, SIRPαV2 R69H IgV-IgG1 Fc | 7.52 | 6.80

Now those with a higher pEC50 [1], led by results:

pEC50 [1] | pEC50 [2] | Substance
9.20 | 8.16 | SIN-303, SIRPαV2 Q52H IgV-IgG1 Fc
9.18 | 8.42 | SIN-300, wild type SIRPαV2 IgV-IgG1 Fc fusion protein
